B1: P1156 (evasin from Ixodes ricinus), purified, C-terminal StrepII:His tag (natural protein)
chain: DGGADDDNELFTVQYCGMNCTKDEGGTWTGCTGKKEGCKCYHESGKNYGLCLSTEYTDFSQYGNPSDSEIEAAKPKRSDTLSH
B2: CCL13 (ligand)
chain: not shown
B3: CCL11 (protein)
chain: not shown
B4: CCL8 (protein)
chain: QPDSVSIPITCCFNVINRKIPIQRLESYTRITNIQCPKEAVIFKTKRGKEVCADPKERWVRDSMKHLDQIFQNLKP
B5: CCL5 (ligand)
chain: SPYSSDTTPCCFAYIARPLPRAHIKEYFYTSGKCSNPAVVFVTRKNRQVCANPEKKWVREYINSLEMS
B6: CCL14 (protein)
chain: TKTESSSRGPYHPSECCFTYTTYKIPRQRIMDYYETNSQCSKPGIVFITKRGHSVCTNPSDKWVQDYIKDMKEN
B7: CCL17 (protein)
chain: ARGTNVGRECCLEYFKGAIPLRKLKTWYQTSEDCSRDAIVFVTVQGRAICSDPNNKRVKNAVKYLQSLERS
B8: CCL15 (protein)
chain: QFTNDAETELMMSKLPLENPVVLNSFHFAADCCTSYISQSIPCSLMKSYFETSSECSKPGVIFLTKKGRQVCAKPSGPGVQDCMKKLKPYSI
B9: CCL18 (protein)
chain: AQVGTNKELCCLVYTSWQIPQKFIVDYSETSPQCPKPGVILLTKRGRQICADPNKKWVQKYISDLKLNA
B10: CCL19 (protein)
chain: GTNDAEDCCLSVTQKPIPGYIVRNFHYLLIKDGCRVPAVVFTTLRGRQLCAPPDQPWVERIIQRLQRTSAKMKRRSS
B11: CCL23 (ligand)
chain: RVTKDAETEFMMSKLPLENPVLLDRFHATSADCCISYTPRSIPCSLLESYFETNSECSKPGVIFLTKKGRRFCANPSDKQVQVCMRMLKLDTRIKTRKN
B12: CCL27 (protein)
chain: FLLPPSTACCTQLYRKPLSDKLLRKVIQVELQEADGDCHLQAFVLHLAQRSICIHPQNPSLSQWFEHQERKLHGTLPKLNFGMLRKMG
B13: CCL16 (protein)
chain: QPKVPEWVNTPSTCCLKYYEKVLPRRLVVGYRKALNCHLPAIIFVTKRNREVCTNPNDDWVQEYIKDPNLPLLPTRNLSTVKIITAKNGQPQLLNSQ
B14: CCL21 (ligand)
chain: SDGGAQDCCLKYSQRKIPAKVVRSYRKQEPSLGCSIPAILFLPRKRSQAELCADPKELWVQQLMQHLDKTPSPQKPAQGCRKDRGASKTGKKGKGSKGCKRTERSQTPKGP
B15: CCL24 (protein)
chain: VVIPSPCCMFFVSKRIPENRVVSYQLSSRSTCLKAGVIFTTKKGQQFCGDPKQEWVQRYMKNLDAKQKKASPRARAVAVKGPVQRYPGNQTTC
B16: CCL3L1 (ligand)
chain: APLAADTPTACCFSYTSRQIPQNFIADYFETSSQCSKPSVIFLTKRGRQVCADPSEEWVQKYVSDLELSA
B17: CCL4L1 (protein)
chain: APMGSDPPTACCFSYTARKLPRNFVVDYYETSSLCSQPAVVFQTKRGKQVCADPSESWVQEYVYDLELN
B18: CCL4 (protein)
chain: B17 chain with G47S
B19: CCL3 (ligand)
chain: SLAADTPTACCFSYTSRQIPQNFIADYFETSSQCSKPGVIFLTKRSRQVCADPSEEWVQKYVSDLELSA

Substitutions are numbered along the chain they refer to.

The target of the first assay is CXCL6 (human). As to the kind of experiment: BLI.
B1: the equilibrium dissociation constant (Kd) came to 63 nM.

For a further assay, the target named is CXCL1 (human, UniProt P09341 35-107). In words: BLI.
Consider B1, for which the Kd came out at 5.8 nM.

The target of another assay is CXCL3 (human, UniProt P19876 35-107). As to the kind of experiment: BLI.
B1: the Kd turned out to be 70 nM.

The target of another assay is CXCL5 (human). As to the kind of experiment: BLI.
As for B1, the affinity, expressed as Kd, was 30 nM.

For another assay, the target named is CXCL8 (human). In words: BLI.
Chain of CXCL8 (human) (chain, as listed by the source): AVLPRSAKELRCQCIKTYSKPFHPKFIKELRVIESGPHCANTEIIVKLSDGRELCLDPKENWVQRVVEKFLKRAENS
For B1, binding was put at a Kd of 2.9 nM.

The target of the next assay is CXCL2 (human, UniProt P19875 35-107). In words: BLI.
The molecule B1 returned a Kd of 51 nM.

The next assay addresses P1156:G4S:P1243 two-warhead evasin (Ixodes ricinus | Amblyomma americanum, UniProt V5HBW0;A0A0C9S461). As to the kind of experiment: BLI.
With B2, the Kd was found to be 0.7 nM.
On the same count and under the same terms, in the case of B3 it was 1.7 nM; in that of B4, 84 nM.
Same read-out and setting: in the case of B5 it was 2.6 nM; in that of B6, 1.1 nM; in that of B7, 5.4 nM.
The molecule B8 yielded a Kd of 12 nM.
In the case of B9, the Kd is 0.001 nM.
B10 had a Kd of 3 nM.
On the same count and under the same terms, the same measure for B11: 0.098 nM; for B12: 17 nM; for B13: 0.65 nM.
B14 returned a Kd of 29 nM.
The same measure, in the same setting: the same measure for B15: 4.5 nM; for B16: 5.3 nM.
B17 displayed a Kd of 15 nM.
On the same count and under the same terms, the same measure for B18: 12 nM.

The next assay deals with P1243:G4S:P1156 two-warhead evasin (Amblyomma americanum | Ixodes ricinus, UniProt A0A0C9S461;V5HBW0). In words: BLI.
Molecule B2 had a Kd of 1.5 nM.
For the molecule B3, binding was put at a Kd of 5.1 nM.
The same measure, in the same setting: the same measure for B4: 93 nM; for B5: 3.4 nM; for B6: 2.1 nM.
Same read-out and setting: the same measure for B7: 4.5 nM; for B8: 11 nM; for B9: 0.3 nM.
The same measure, in the same setting: the same measure for B10: 2.5 nM; for B11: 0.37 nM.
For B12, binding was put at a Kd of 23 nM.
On the same count and under the same terms, the same measure for B13: 0.93 nM.
Same read-out and setting: in the case of B19 it was 25 nM; in that of B15, 9.4 nM.
B16 had a Kd of 6.4 nM.
Turning to B17, the Kd came out at 14 nM.
With B18, binding was put at a Kd of 12 nM.

For the origin of these results see publication PMC5910400 (2018).
